Measured values taken from the RNAGym collection of RNA variant scans (doi:10.7554/elife.80360).

B1: HDV Ribozyme (parent)
chain: GGCCGGCAUGGUCCCAGCCUCCUCGCUGGCGCCGGCUGGGCAACAUUCCGAGGGGACCGUCCCCUCGGUAAUGGCGAAUGGGACCCA

Variants of: B1
Assay: self-cleavage, relative activity (ratio to wild type); higher = more cleavage; co-transcriptional

| Variant | self-cleavage |
| --- | --- |
| GGCCGGCAUGGUCCCAGCCUCCUCGCUGGCGACGGCUGGGCAACAUUCCGAGGGGACCGUCCCCUCGGUUAUGGCGAAUGGGACCCA [C32A A70U] | 0.0852 |
| GGCCGGCAUGGUCCCAGCCUCCUCGCUGGCGGCGGCUGGGCAACAUUCCGAGGGGACCGUCCCCUCGGUAAUGGCGAAUGGGUCCCA [C32G A83U] | 0.166 |
| GGCCGGCAUGGUCCCAGCCUCCUCGCUGGCGGCGGCUGGGCAACAUUCCGAGGGGACCGUCCCAUCGGUAAUGGCGAAUGGGACCCA [C32G C64A] | 0.0755 |
| GGCCGGCAUGGUCCCAGCCUCCUCGCUGGCGACGGCUGGGCAACAUUCCGAGGGGACCGUCCCCUCGGUAAUGGCGUAUGGGACCCA [C32A A77U] | 0.108 |
| GGCCGGCAUGGUCCCAGCCUCCUCGCUGGCGACGGCUGGGCAACAUUCCGAGGGGACCGUCCCCUCGGUAAUGGCGGAUGGGACCCA [C32A A77G] | 0.0426 |
| GGCCGGCAUGGUCCCAGCCUCCUCGCUGGCGGCGGGUGGGCAACAUUCCGAGGGGACCGUCCCCUCGGUAAUGGCGAAUGGGACCCA [C32G C36G] | 0.0449 |
| GGCCGGCAUGGUCCCAGCCUCCUCGCUGGCGACGGCUGGGUAACAUUCCGAGGGGACCGUCCCCUCGGUAAUGGCGAAUGGGACCCA [C32A C41U] | 0.143 |
| GGCCGGCAUGGUCCCAGCCUCCUCGCUGGCGGCGGCUGGGCAACAUUCUGAGGGGACCGUCCCCUCGGUAAUGGCGAAUGGGACCCA [C32G C49U] | 0.0811 |
| GGCCGGCAUGGUCCCAGCCUCCUCGCUGGCGGCGGCUGGGCAACAUUCCGAGGGGACCGUCCCCUCGGUAUUGGCGAAUGGGACCCA [C32G A71U] | 0.115 |
| GGCCGGCAUGGUCCCAGCCUCCUCGCUGGCGACGGCUGGGCAACAUUCCGAGGGGACCGUCCCCUCGGUAAUGGCGAAUGGAACCCA [C32A G82A] | 0.0361 |
| GGCCGGCAUGGUCCCAGCCUCCUCGCUGGCGAUGGCUGGGCAACAUUCCGAGGGGACCGUCCCCUCGGUAAUGGCGAAUGGGACCCA [C32A C33U] | 0.0779 |
| GGCCGGCAUGGUCCCAGCCUCCUCGCUGGCGGCGGCUGGGCAACAUUCCGAGGGGACCGUCCCCUCGGUAAUGGGGAAUGGGACCCA [C32G C75G] | 0 |
| GGCCGGCAUGGUCCCAGCCUCCUCGCUGGCGGCGGCUGGGCAACAUUCCGAGGGGACCGUCCCCUCGGUAAUGGUGAAUGGGACCCA [C32G C75U] | 0.0468 |
| GGCCGGCAUGGUCCCAGCCUCCUCGCUGGCGACGGCUGGGCAACAUUCGGAGGGGACCGUCCCCUCGGUAAUGGCGAAUGGGACCCA [C32A C49G] | 0.222 |
| GGCCGGCAUGGUCCCAGCCUCCUCGCUGGCGACGGCUGGGCAACAUUCUGAGGGGACCGUCCCCUCGGUAAUGGCGAAUGGGACCCA [C32A C49U] | 0.0997 |
| GGCCGGCAUGGUCCCAGCCUCCUCGCUGGCGACGGCUGGGCAAAAUUCCGAGGGGACCGUCCCCUCGGUAAUGGCGAAUGGGACCCA [C32A C44A] | 0.364 |

| Variant | self-cleavage |
| --- | --- |
| GGCCGGCAUGGUCCCAGCCUCCUCGCUGGCGACGGCUGGGCAAGAUUCCGAGGGGACCGUCCCCUCGGUAAUGGCGAAUGGGACCCA [C32A C44G] | 0.107 |
| GGCCGGCAUGGUCCCAGCCUCCUCGCUGGCGACGGCUGGGCAAUAUUCCGAGGGGACCGUCCCCUCGGUAAUGGCGAAUGGGACCCA [C32A C44U] | 0.0875 |
| GGCCGGCAUGGUCCCAGCCUCCUCGCUGGCGACGGCUGGGCAACAUUCCGAGGGGACCGUCCCCUCGGUAAUGGCGAAAGGGACCCA [C32A U79A] | 0.121 |
| GGCCGGCAUGGUCCCAGCCUCCUCGCUGGCGACGGCUGGGCAACAUUCCGAGGGGACCGUCCCCUCGGUAAUGGCGAAUGGGACCCU [C32A A87U] | 0.183 |
| GGCCGGCAUGGUCCCAGCCUCCUCGCUGGCGACGGCUGGGCAACAUUCCGAGGGGACCGUCCCCUCGGUAAUGGCGAAUGGGACCCG [C32A A87G] | 0.165 |
| GGCCGGCAUGGUCCCAGCCUCCUCGCUGGCGGCGGCUGGGCAACAUUCCGAGGGGACCGUCCUCUCGGUAAUGGCGAAUGGGACCCA [C32G C63U] | 0.112 |
| GGCCGGCAUGGUCCCAGCCUCCUCGCUGGCGGCGGCUGGGCAACAUUCCGAGGGGACCGUCCGCUCGGUAAUGGCGAAUGGGACCCA [C32G C63G] | 0.0831 |
| GGCCGGCAUGGUCCCAGCCUCCUCGCUGGCGACGGCUGGGCAACAUUCCGAGGGGACCGUCCCCUCGGUAAUGCCGAAUGGGACCCA [C32A G74C] | 0.108 |
| GGCCGGCAUGGUCCCAGCCUCCUCGCUGGCGACGGCUGAGCAACAUUCCGAGGGGACCGUCCCCUCGGUAAUGGCGAAUGGGACCCA [C32A G39A] | 0.0563 |
| GGCCGGCAUGGUCCCAGCCUCCUCGCUGGCGACGGCUGGGCAACAUCCCGAGGGGACCGUCCCCUCGGUAAUGGCGAAUGGGACCCA [C32A U47C] | 0.0462 |
| GGCCGGCAUGGUCCCAGCCUCCUCGCUGGCGACGGCUGGGCAACAUUCCGAGGGGACCGUCCCCUCGGUAAUGGCGAAUGGGACCUA [C32A C86U] | 0.147 |
| GGCCGGCAUGGUCCCAGCCUCCUCGCUGGCGGCGGCUGGGCAACAUUACGAGGGGACCGUCCCCUCGGUAAUGGCGAAUGGGACCCA [C32G C48A] | 0.0378 |
| GGCCGGCAUGGUCCCAGCCUCCUCGCUGGCGGCGGCUGGGCAACAUUGCGAGGGGACCGUCCCCUCGGUAAUGGCGAAUGGGACCCA [C32G C48G] | 0.0437 |
| GGCCGGCAUGGUCCCAGCCUCCUCGCUGGCGGCGGCUGGGCAACAUUCCGAGGGGACCGUCCCCUCGGUCAUGGCGAAUGGGACCCA [C32G A70C] | 0.38 |
| GGCCGGCAUGGUCCCAGCCUCCUCGCUGGCGACGGCUGGGCAACAUUCCGAAGGGACCGUCCCCUCGGUAAUGGCGAAUGGGACCCA [C32A G52A] | 0.302 |
| GGCCGGCAUGGUCCCAGCCUCCUCGCUGGCGACGGCUGGGCAACAUUCCGACGGGACCGUCCCCUCGGUAAUGGCGAAUGGGACCCA [C32A G52C] | 0.0831 |
